{"source": "paper PMC4540782", "about": "“Latent and active aurone synthase from petals of C. grandiflora: a polyphenol oxidase with unique characteristics” (Planta, 2015)", "key": {"[1]": {"molecular_target": "T1, latent recombinant cgAUS1 (pro-cgAUS1) (Coreopsis grandiflora, UniProt A0A075DN54)", "T1 construct": "heterologously expressed latent pro-enzyme with C-terminal shielding domain", "T1 sequence (A0A075DN54 86-602)": "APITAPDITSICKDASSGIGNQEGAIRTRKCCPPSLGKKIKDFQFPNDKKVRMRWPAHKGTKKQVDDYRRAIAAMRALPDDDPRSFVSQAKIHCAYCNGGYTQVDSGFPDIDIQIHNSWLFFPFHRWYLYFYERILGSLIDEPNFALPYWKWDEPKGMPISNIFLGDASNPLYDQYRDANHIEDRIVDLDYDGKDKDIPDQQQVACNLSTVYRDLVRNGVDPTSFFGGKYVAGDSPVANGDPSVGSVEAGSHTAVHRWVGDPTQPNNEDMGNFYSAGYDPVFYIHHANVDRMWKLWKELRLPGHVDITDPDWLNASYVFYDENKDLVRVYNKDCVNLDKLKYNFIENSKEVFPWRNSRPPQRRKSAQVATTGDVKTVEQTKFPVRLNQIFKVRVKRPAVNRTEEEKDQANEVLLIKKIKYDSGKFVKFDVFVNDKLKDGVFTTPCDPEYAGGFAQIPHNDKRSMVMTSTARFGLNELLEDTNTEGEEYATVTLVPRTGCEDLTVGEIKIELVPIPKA", "assay": "spectrophotometric pH profile", "type": "biochemical", "details": "25 µM butein, 125 mM sodium citrate, pH 3.5 to 7.4; no allosteric activation"}, "Cc1ccc(O)c(O)c1": {"test_system": "T2, Cc1ccc(O)c(O)c1", "T2 construct": "main core API-IENSKE plus disulfide-linked C-terminal peptide D438-G452; partly phosphorylated or sulfated at Tyr230", "assay": "purified protein", "type": "biochemical, Coreopsis grandiflora", "details": "pH 5.5, suicide substrate"}, "[2]": {"test_system": "T3, O=C(/C=C/c1ccc(O)c(O)c1)c1ccc(O)cc1O", "T3 construct": "main core API-IENSKE plus disulfide-linked C-terminal peptide D438-G452; partly phosphorylated or sulfated at Tyr230", "assay": "purified protein", "type": "biochemical, Coreopsis grandiflora", "details": "pH 5.5, diphenolase, butein to sulfuretin"}, "CC(C)(C)c1ccc(O)c(O)c1": {"test_system": "T4, CC(C)(C)c1ccc(O)c(O)c1", "T4 construct": "main core API-IENSKE plus disulfide-linked C-terminal peptide D438-G452; partly phosphorylated or sulfated at Tyr230", "assay": "purified protein", "type": "biochemical, Coreopsis grandiflora", "details": "pH 5.5, suicide substrate"}, "Oc1ccccc1O": {"test_system": "T5, Oc1ccccc1O", "T5 construct": "main core API-IENSKE plus disulfide-linked C-terminal peptide D438-G452; partly phosphorylated or sulfated at Tyr230", "assay": "purified protein", "type": "biochemical, Coreopsis grandiflora", "details": "pH 5.5"}}, "data": [{"compound": "O=C(/C=C/c1ccc(O)c(O)c1)c1ccc(O)cc1O", "note": "[Butein]", "values": [{"measurement": "spectrophotometric pH profile", "setting": "[1]", "result": "pH optimum of recombinant pro-cgAUS1 (filled triangle, dashed lines) and active cgAUS1"}]}, {"compound": "active cgAUS1 (aurone synthase), sample 1 (Coreopsis grandiflora; DEL436-522)", "values": [{"measurement": "Km", "setting": "Cc1ccc(O)c(O)c1", "result": "3110 ± 120", "unit": "µM"}, {"measurement": "Vmax", "setting": "Cc1ccc(O)c(O)c1", "result": "2300 ± 39", "unit": "µmol/min/mg"}, {"measurement": "kcat", "setting": "Cc1ccc(O)c(O)c1", "result": "1590 ± 27", "unit": "s⁻¹"}, {"measurement": "kcat/Km", "setting": "Cc1ccc(O)c(O)c1", "result": "512000 ± 22000", "unit": "M⁻¹ s⁻¹"}, {"measurement": "Km", "setting": "[2]", "result": "52 ± 3", "unit": "µM"}, {"measurement": "Vmax", "setting": "[2]", "result": 489, "unit": "µmol/min/mg"}, {"measurement": "kcat", "setting": "[2]", "result": "464 ± 16", "unit": "s⁻¹"}, {"measurement": "kcat/Km", "setting": "[2]", "result": "8.93e+06 ± 649000", "unit": "M⁻¹ s⁻¹"}, {"measurement": "Km", "setting": "CC(C)(C)c1ccc(O)c(O)c1", "result": "504 ± 20", "unit": "µM"}, {"measurement": "Vmax", "setting": "CC(C)(C)c1ccc(O)c(O)c1", "result": "2260 ± 23", "unit": "µmol/min/mg"}, {"measurement": "kcat", "setting": "CC(C)(C)c1ccc(O)c(O)c1", "result": "1560 ± 16", "unit": "s⁻¹"}, {"measurement": "Km", "setting": "Oc1ccccc1O", "result": "4040 ± 690", "unit": "µM"}, {"measurement": "kcat", "setting": "Oc1ccccc1O", "result": "869 ± 41", "unit": "s⁻¹"}, {"measurement": "kcat/Km", "setting": "Oc1ccccc1O", "result": "215000 ± 38000", "unit": "M⁻¹ s⁻¹"}]}]}
